Measured values taken from US9428783B2, “DNA encoding dipeptide-synthesizing enzyme (variants), bacterium belonging to the genus Escherichia, and methods for producing dipeptides using thereof” (Ajinomoto Co., Inc., priority 2012, dated 2016).
Each block holds one molecule with its values, some of them ahead of it.

Key:
Format in all cases: biochemical
[1] = Preliminary analysis of substrate specificity by TLC; conditions: 4 μg enzyme, 10 mM each amino acid, 10 mM ATP, pH 8.0, 32° C., 15 hours
Source text: The substrate specificity of BBR47_51900 and Staur_4851 was studied in the reaction mixture containing the enzyme and canonical L-amino acids such as L-alanine, L-arginine, L-asparagine, L-aspartic acid, L-cysteine, glycine, L-glutamic acid, L-glutamine, L-histidine, L-isoleucine, L-leucine, L-lysine, L-methionine, L-phenylalanine, L-proline, L-serine, L-threonine, L-tryptophan, L-tyrosine, and L-valine, or salts thereof, of the same or two different kinds. The composition of the reaction mixture of total volume of 50 μL was as follows unless otherwise noted:
Reactions were carried out at 32° C. for 15 hours. 1-2 μL of reaction mixture was subjected to thin layer chromatography (TLC) analysis using as mobile phase the mixture of 2-propanol:acetone:250 mM ammonia:H2O as 100:100:12:28. […] Detection was performed at 540 nm. The new spots on TLC-plates were detected after developing the reaction mixtures, which contained: […]

[2] = HPLC determination of dipeptides synthesized by the enzymes; conditions: 160 μg enzyme, 10 mM substrates, 10 mM ATP, pH 9.0, 32° C., 15 hours
Experimental: Dipeptides synthesized by BBR47_51900 and Staur_4851 were determined using HPLC analysis of reaction mixtures of total volume of 400 μL, which contained:
Reactions were carried out at 32° C. for 15 hours. Then […] of reaction mixture was filtered through the Amicon Ultra-0.5 mL, 3K Centrifugal Filters (Millipore, #UFC500396) and subjected to HPLC analysis.
The conditions were as follows: • Equipment: HITACHI L-2000 series. • Column: Inertsil ODS-3 4.6×250 mm, […] (GL Sciences Inc.). • Temperature: 40° C. • Buffers:
A (for mixture L-Asp/L-Val and L-Glu/L-Val): 0.1 M KH2PO4 (pH 2.2)+5 mM octanesulfonate, sodium salt: CH3CN as 4:1 (v/v),
B (for mixture L-Asp/L-Phe): 0.1 M KH2PO4 (pH 2.2)+5 mM octanesulfonate, sodium salt: CH3CN as 7:3 (v/v),
C (for mixture L-Asp/L-PheOMe, L-Asp/L-Trp, and L-Val/L-Val): 0.1 M KH2PO4 (pH 2.2)+5 mM octanesulfonate, sodium salt:CH3CN as 3:2 (v/v),
D (for mixture L-Phe/L-Phe): 0.1 M KH2PO4 (pH 2.2)+5 mM octanesulfonate, sodium salt: CH3CN as 1:1 (v/v). • Gradient profile: isocratic. • Flow rate: 1.5 mL/min. • Injection volume: 10 μL. • Detection: UV 210 nm.
Solution of αGlu-Val, γGlu-Val, αAsp-Val (10 mM each) and αAsp-Phe, βAsp-Phe (5 mM each) were prepared for HPLC analysis. The concentration of a dipeptide formed was determined using corresponding calibration curves. Each solution with standard sample was diluted to 50-folds or 100-folds for LC-QTOF/MS/MS analysis (Example 5).

[3] = LC-QTOF/MS/MS determination of dipeptides synthesized; conditions: reaction mixtures of Example 4
Source text: Samples of reaction mixtures and standard solutions obtained as described in Example 4 were subjected to LC-QTOF/MS/MS analysis.
The conditions were as follows:
Equipment: LC (Agilent1200SL), MS (Micromass Q-TOF Premier)
Column: Develosil C30 2.0×250 mm, 3 μm (Nomura Chemical).
Buffers: • A: H2O (0.025% Formic acid), • B: CH3CN (0.025% Formic acid).

[4] = Enzymatic production of Asp-Phe using ATP regeneration system; conditions: 0.15 U enzyme, 100 mM L-AspNa, 100 mM L-Phe, 37° C.
Experimental: The product yield of Asp-Phe was studied in the reaction mixture of BBR47_51900 and Staur_4851 containing phosphoenolpyruvate and pyruvate kinase for regeneration of ATP in order to prevent highly concentrated ATP from inhibiting the enzyme reaction. The composition of the reaction mixture of total volume of 1 ml was as follows.
Reactions were carried out at 37° C. for 1-48 hours. 100 μL out of the 1 mL reaction mixture was sampled at each reaction time. Each reaction mixture, into which 10 μL of 1 M EDTA (pH9.0) was added to stop the reaction, was subjected to HPLC analysis. The condition was as described in Example 4. As a result, BBR47_51900 and Staur_4851 could produce Asp-Phe in the ATP regeneration system (Table 9).

[5] = Asp-Phe synthesizing activity of MBP fused His6-tagged DES; conditions: 160 μg DES, 100 mM L-Asp, 100 mM L-Phe, 10 mM ATP, pH 9.0, 37° C., 15 hours
Experimental: Dipeptides synthesized by MBP fused His6-tagged DES were determined using HPLC analysis of reaction mixture of total volume of 400 μL, which contained:
Reactions were carried out at 37° C. for 15 hours. Then the reaction mixture, into which 10 μl of 1 M EDTA, pH9.0 was added to stop the enzymatic reaction, was subjected to HPLC analysis. The conditions were as described in Example 4. As a result, DES catalyzes formation of 0.30 mM Asp-Phe.

- Dipeptides (mM) Asp-Phe [2]: 1.22 mM
- Dipeptides (mM) Asp-PheOMe [2]: 0.03 mM
- Dipeptides (mM) Asp-Trp [2]: 0.13 mM
- Dipeptides (mM) Asp-Val [2]: 3.9 mM
- Dipeptides (mM) Glu-Val [2]: 1.48 mM
B1: BBR47_51900: L-amino acid α-ligase (hypothetical protein) from Brevibacillus brevis NBRC 100599, SEQ ID NO: 2 (protein)
chain: MNKHFLFVEANTTGTGMLAMKKARKLGFTPVFFTEKPERYHGLNELECHVVVTDTNSQAELTDSVAQVSKEGREIAGIMSTSDYYLESVAKLARKFGWISNSLEAIEACRNKAIFREKLQRHQVSQPTFLAISSMEQLLEARSSISLPCVVKPADDSGSNNVRLCFSWDEVEHMAAEILAIKYNARGQETARTVLLEQYAEGPEFSVETFSWQGQCFVIGITQKRLTGYPFFVEAGHIFPAPLSVEEKQEIERTVERALAAVKYQFGAAHTEVKWTSAGCVVIEVNARLAGGMIPELVRRSTGIDLLLQQIRCAAGLEPELSQTIEEQRCAGIHFLVSESQGTFGGIKGMDTVRNLPGIAEVAIHAKIGQNVQPPQNFSHRLGYVIVEGKHYSETAELIEQVKDSLSVQVGQQLESGV
modifications: Brevibacillus brevis NBRC 100599
- L-amino acid pairs giving new spots on TLC-plates (ligation) [1]: L-Glu/L-Glu, or L-Glu/L-Asp, or L-Glu/L-Val, or L-Glu/L-Ile, or L-Asp/L-Ile, or L-Asp/L-Val
- Dipeptides whose formation is catalyzed (LC-QTOF/MS/MS) [3]: αAsp-Phe, αAsp-Val, and αGlu-Val
- Asp-Phe ([4]; 1 hr): 7 mM
- Asp-Phe ([4]; 2 hr): 13 mM
- Asp-Phe ([4]; 4 hr): 24 mM
- Asp-Phe ([4]; 8 hr): 40 mM
- Asp-Phe ([4]; 24 hr): 68 mM
- Asp-Phe ([4]; 48 hr): 74 mM

B2: DES: pyridoxal-phosphate dependent enzyme from Desmospora sp. 8437, SEQ ID NO: 6; tested as MBP fused His6-tagged DES (protein)
chain: MKKKLLFVEGNTTGTGILALEKARKLGYEPVFLTQEASRYDGLPEAKCRVHVTVTDSIHELKRCVSQEKAEAVAGILTTSDYYLEISAKLVQELGLTGNSPQAIHLCRNKALYREKLRSKSVPQPNFHIIRSMEDLRETRESVPLPCLVKPADDSGSNNVRLCFSWGEVEQLTSKILKIERNARGQKTSQTVLLEEYIEGPEYSVEMFSWQGKSTCIGITEKQLTGYPYFVESGHVFPAVLPTDVQQEIEKTVKQSLEAVHFQFGASHSEVKWTPNGCVMIETNARLAGGMIPELVRHSTGVDLIEQQILCAAGVAPHWKQVVPTGCSGIHFIVAAEAGRLSSVDNLEAVRKLPGVEEMMVKAQVGQAVQPPKNFSDRLGHVIVSGKSYEEVVERLHKISNMISLKIS
modifications: MBP fusion, His6 tag; Desmospora sp. 8437
- Asp-Phe formed [5]: 0.30 mM
